From the supplement of paper PMC11136658

Test system: peptide library, one residue held at a place counted from the Y acceptor
Assay: relative phosphorylation of the sub-library (ratio to the mean residue at this position); higher = residue favoured
How it was run: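 Purified recombinant kinases were given 50 μM ATP with γ-32P-ATP and biotinylated Tyr-centred peptide library mixtures for 90 min in 384-well plates. Peptides bound to streptavidin membranes were rinsed and quantified by phosphorimaging, and intensities were normalized per position by the sum of the 18 randomized residues (16 with the Ser/Thr-free library) and multiplied by that number. The reported values are phosphorylation relative to the mean randomized residue.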

Sequence of CSF1R, construct: aa539-end, human (P07333 539-972, looked up): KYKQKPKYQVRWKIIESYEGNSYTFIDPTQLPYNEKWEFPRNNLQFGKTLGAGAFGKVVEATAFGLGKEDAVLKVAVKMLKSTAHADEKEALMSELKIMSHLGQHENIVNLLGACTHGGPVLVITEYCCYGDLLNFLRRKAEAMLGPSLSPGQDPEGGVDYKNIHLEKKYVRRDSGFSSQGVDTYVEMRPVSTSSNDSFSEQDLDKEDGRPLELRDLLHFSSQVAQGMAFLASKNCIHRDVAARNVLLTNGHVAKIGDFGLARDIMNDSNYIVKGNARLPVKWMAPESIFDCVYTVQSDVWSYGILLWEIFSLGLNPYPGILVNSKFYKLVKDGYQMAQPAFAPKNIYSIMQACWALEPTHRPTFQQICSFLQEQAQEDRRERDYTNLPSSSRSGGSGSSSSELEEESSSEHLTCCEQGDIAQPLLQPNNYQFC
Sequence of DDR1, construct: aa444-end, human (Q08345 444-913, looked up): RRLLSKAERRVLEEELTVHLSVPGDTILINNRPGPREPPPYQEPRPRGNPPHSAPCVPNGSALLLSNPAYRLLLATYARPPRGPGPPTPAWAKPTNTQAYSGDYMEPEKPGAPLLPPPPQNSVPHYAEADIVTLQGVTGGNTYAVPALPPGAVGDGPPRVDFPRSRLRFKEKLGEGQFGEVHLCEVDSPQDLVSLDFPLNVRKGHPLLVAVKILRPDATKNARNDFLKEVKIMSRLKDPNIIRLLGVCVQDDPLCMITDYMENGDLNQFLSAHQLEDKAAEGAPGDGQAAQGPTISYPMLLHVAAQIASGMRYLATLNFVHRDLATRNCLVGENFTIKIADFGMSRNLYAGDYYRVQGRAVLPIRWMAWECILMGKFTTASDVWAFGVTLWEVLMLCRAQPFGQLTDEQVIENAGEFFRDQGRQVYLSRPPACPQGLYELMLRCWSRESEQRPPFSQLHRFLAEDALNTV
Sequence of CSK, construct: Full length, human (P41240 whole entry, looked up): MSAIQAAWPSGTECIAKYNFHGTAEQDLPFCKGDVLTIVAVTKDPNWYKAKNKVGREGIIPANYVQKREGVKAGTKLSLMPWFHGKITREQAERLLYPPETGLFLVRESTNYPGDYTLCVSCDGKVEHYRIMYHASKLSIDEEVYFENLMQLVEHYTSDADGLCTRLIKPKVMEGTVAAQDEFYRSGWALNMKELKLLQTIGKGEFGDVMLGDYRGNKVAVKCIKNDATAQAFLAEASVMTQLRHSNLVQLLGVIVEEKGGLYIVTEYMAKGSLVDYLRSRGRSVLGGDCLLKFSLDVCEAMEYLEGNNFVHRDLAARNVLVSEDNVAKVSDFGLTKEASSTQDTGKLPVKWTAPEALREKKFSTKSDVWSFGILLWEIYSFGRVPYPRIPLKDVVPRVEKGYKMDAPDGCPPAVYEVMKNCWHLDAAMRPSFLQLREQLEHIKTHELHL

CSF1R, construct: aa539-end, human (from UniProt P07333)
relative phosphorylation
Conditions | at +1 | at +2 | at +3 | at +4 | at +5 | at -1 | at -2 | at -3 | at -4 | at -5
A fixed | 0.891 | 0.881 | 0.64 | 0.958 | 0.873 | 0.884 | 1.16 | 1.02 | 1.07 | 1.09
D fixed | 0.331 | 0.636 | 0.32 | 0.718 | 0.844 | 1.13 | 1.11 | 1.36 | 1.3 | 1.14
E fixed | 0.638 | 0.924 | 0.246 | 0.784 | 0.832 | 1.06 | 1.17 | 1.77 | 1.47 | 1.06
F fixed | 1.89 | 1.09 | 1.97 | 1.27 | 0.977 | 1.04 | 0.617 | 0.741 | 0.821 | 0.963
G fixed | 0.444 | 0.508 | 0.633 | 1.15 | 1.43 | 0.656 | 1.22 | 1.27 | 1.23 | 1.2
H fixed | 1.74 | 0.993 | 0.863 | 1.15 | 1.05 | 1.77 | 0.992 | 0.973 | 0.923 | 1
I fixed | 1.67 | 1.04 | 2.14 | 0.891 | 0.781 | 1.62 | 0.834 | 0.63 | 0.846 | 0.783
K fixed | 0.674 | 0.951 | 0.632 | 1.01 | 1.05 | 0.535 | 0.751 | 0.731 | 0.878 | 0.98
L fixed | 1.3 | 1.21 | 1.93 | 0.874 | 0.689 | 1.23 | 0.952 | 0.763 | 0.858 | 0.817
M fixed | 1.2 | 1.05 | 1.67 | 1.06 | 0.927 | 0.91 | 0.757 | 0.755 | 0.863 | 0.909
N fixed | 0.512 | 0.965 | 0.523 | 0.975 | 1.08 | 1.15 | 1.16 | 1.21 | 0.936 | 1.12
P fixed | 0.565 | 0.847 | 1.13 | 0.922 | 1.34 | 1.05 | 1.6 | 1.17 | 1.34 | 1.29
Q fixed | 0.973 | 0.989 | 0.519 | 0.965 | 0.931 | 0.919 | 1.03 | 1.07 | 0.921 | 0.93
R fixed | 0.745 | 1.31 | 0.929 | 1.36 | 1.2 | 0.474 | 0.844 | 0.786 | 0.782 | 0.871
S fixed | 0.721 | 0.893 | 0.604 | 1.02 | 1.24 | 0.687 | 1.2 | 1.14 | 0.97 | 1.03
T fixed | 0.938 | 1.11 | 0.856 | 1.04 | 1.07 | 1.08 | 1.08 | 1.12 | 0.899 | 1.01
V fixed | 1.56 | 1.11 | 1.47 | 0.851 | 0.756 | 1.12 | 0.939 | 0.748 | 0.866 | 0.859
W fixed | 1.2 | 1.49 | 0.91 | 1.01 | 0.928 | 0.678 | 0.575 | 0.745 | 1.02 | 0.943
pThr fixed | 0.739 | 1.17 | 0.232 | 0.432 | 0.567 | 1.02 | 0.996 | 1.2 | 1.12 | 0.956
pTyr fixed | 1.61 | 1.25 | 0.341 | 0.698 | 0.773 | 1.87 | 1.01 | 1.11 | 1.16 | 1

CSK, construct: Full length, human (from UniProt P41240)
relative phosphorylation
Conditions | at +1 | at +2 | at +3 | at +4 | at +5 | at -1 | at -2 | at -3 | at -4 | at -5
A fixed | 1.41 | 0.875 | 0.728 | 0.981 | 1.32 | 0.815 | 1.34 | 0.852 | 1.16 | 1.05
D fixed | 0.482 | 1.38 | 0.566 | 1.08 | 0.834 | 0.976 | 0.757 | 1.29 | 1.3 | 1.07
E fixed | 0.852 | 1.46 | 0.505 | 1.36 | 0.948 | 1.78 | 0.958 | 2.98 | 1.99 | 1.16
F fixed | 1.31 | 1.36 | 2.01 | 1.1 | 1.07 | 1.38 | 0.554 | 0.79 | 1.12 | 1.37
G fixed | 0.515 | 0.485 | 0.648 | 1.17 | 1.14 | 0.362 | 1.07 | 0.915 | 1.23 | 1.15
H fixed | 1.03 | 0.914 | 0.901 | 1.22 | 1.13 | 1.2 | 0.684 | 0.839 | 0.869 | 0.994
I fixed | 1.71 | 1.07 | 2.04 | 0.759 | 0.869 | 2.44 | 1.14 | 0.774 | 0.913 | 1.05
K fixed | 0.4 | 0.606 | 0.389 | 0.815 | 0.684 | 0.472 | 0.659 | 0.867 | 0.812 | 0.748
L fixed | 1.13 | 1.08 | 1.07 | 0.746 | 1.02 | 1.24 | 0.761 | 0.763 | 0.86 | 1.07
M fixed | 1.1 | 0.839 | 1.01 | 1.06 | 0.937 | 0.9 | 0.558 | 0.832 | 0.866 | 1.01
N fixed | 0.362 | 1.06 | 0.509 | 0.875 | 0.974 | 0.679 | 0.765 | 0.901 | 0.705 | 0.845
P fixed | 0.23 | 0.59 | 1.02 | 1.08 | 1.39 | 0.395 | 2.04 | 0.944 | 1.03 | 1.01
Q fixed | 0.988 | 0.791 | 0.607 | 0.992 | 0.954 | 0.691 | 0.952 | 0.772 | 1.07 | 0.839
R fixed | 0.524 | 0.757 | 0.46 | 0.859 | 0.717 | 0.409 | 0.738 | 0.976 | 0.758 | 0.735
S fixed | 0.787 | 0.978 | 0.734 | 0.868 | 1.14 | 0.533 | 1.47 | 0.958 | 0.826 | 0.943
T fixed | 0.803 | 0.829 | 0.689 | 0.879 | 1.07 | 0.926 | 1.16 | 0.918 | 0.715 | 0.897
V fixed | 1.67 | 1.03 | 1.6 | 0.831 | 0.769 | 1.65 | 1.81 | 0.769 | 0.778 | 0.831
W fixed | 2.7 | 1.9 | 2.52 | 1.34 | 1.03 | 1.16 | 0.576 | 0.859 | 1.01 | 1.22
pThr fixed | 1.23 | 1.87 | 0.582 | 1.12 | 0.922 | 1.02 | 0.787 | 1.35 | 1.03 | 1.02
pTyr fixed | 3.21 | 7.03 | 1.05 | 1.36 | 1.64 | 4.72 | 1.71 | 2.14 | 2.83 | 1.74

DDR1, construct: aa444-end, human (from UniProt Q08345)
relative phosphorylation
Conditions | at +1 | at +2 | at +3 | at +4 | at +5 | at -1 | at -2 | at -3 | at -4 | at -5
A fixed | 1.61 | 0.998 | 0.762 | 0.858 | 0.675 | 1.07 | 1.08 | 1.02 | 1.18 | 1.16
D fixed | 0.629 | 0.815 | 0.717 | 0.883 | 0.561 | 1.35 | 0.723 | 0.719 | 0.772 | 0.767
E fixed | 0.665 | 1.36 | 0.716 | 0.964 | 0.549 | 0.785 | 0.748 | 0.717 | 0.798 | 0.759
F fixed | 1.62 | 1.04 | 1.38 | 2.72 | 3.66 | 1.13 | 0.804 | 1.18 | 1.16 | 1.38
G fixed | 0.639 | 0.629 | 0.633 | 0.621 | 0.701 | 0.7 | 1.07 | 0.946 | 1.05 | 1.06
H fixed | 1.07 | 0.986 | 1.16 | 1.19 | 1.03 | 1.14 | 1.24 | 1.45 | 1.13 | 1.13
I fixed | 0.955 | 1.1 | 1.63 | 1.01 | 1.49 | 0.938 | 0.721 | 0.828 | 0.716 | 0.728
K fixed | 0.817 | 0.809 | 0.736 | 0.743 | 0.623 | 0.81 | 1.44 | 1.35 | 1.4 | 1.34
L fixed | 0.781 | 1.42 | 1.56 | 0.985 | 1.21 | 0.958 | 0.794 | 0.773 | 0.81 | 0.736
M fixed | 0.972 | 1.26 | 1.58 | 0.982 | 1.08 | 0.825 | 0.79 | 0.82 | 0.949 | 0.816
N fixed | 0.846 | 0.891 | 0.755 | 0.75 | 0.586 | 2.03 | 1.24 | 1.05 | 0.924 | 1.03
P fixed | 0.677 | 0.738 | 0.619 | 0.752 | 1.05 | 0.971 | 1.18 | 0.871 | 1.05 | 1.02
Q fixed | 0.916 | 0.888 | 0.74 | 0.806 | 0.598 | 0.934 | 1.05 | 0.96 | 1.09 | 1.02
R fixed | 0.963 | 0.845 | 0.784 | 0.807 | 0.732 | 0.806 | 1.63 | 1.49 | 1.48 | 1.44
S fixed | 0.974 | 0.796 | 0.602 | 0.56 | 0.617 | 0.92 | 1.11 | 0.975 | 0.835 | 0.896
T fixed | 1.14 | 0.912 | 0.744 | 0.678 | 0.667 | 0.835 | 0.904 | 0.91 | 0.829 | 0.853
V fixed | 1.72 | 1.29 | 1.46 | 1.25 | 1.02 | 0.917 | 0.73 | 0.786 | 0.798 | 0.823
W fixed | 1 | 1.22 | 1.43 | 1.44 | 1.14 | 0.886 | 0.747 | 1.15 | 1.03 | 1.04
pThr fixed | 0.793 | 1.37 | 0.799 | 1.1 | 0.686 | 0.743 | 0.653 | 0.678 | 0.726 | 0.775
pTyr fixed | 1.03 | 2 | 0.914 | 1.43 | 0.653 | 0.867 | 0.713 | 0.849 | 0.908 | 0.953
